Results taken from US6818749.
Positions count from the first letter of the chain named.

Experiments:
[1] = target: anti-CC49 variable region (anti-idiotypic) antibodies in the serum of patient six; test: HPLC size exclusion; 5 µg cold competitor + ^125I-HuCC49 + patient serum; less complex = more competition
[2] = target: anti-CC49 variable region (anti-idiotypic) antibodies in the serum of patient two; test: as above
[3] = target: anti-CC49 variable region (anti-idiotypic) antibodies in the serum of patient one; test: as above
[4] = target: anti-CC49 variable region (anti-idiotypic) antibodies in the serum of patient three; test: as above
[5] = target: anti-CC49 variable region (anti-idiotypic) antibodies in the serum of patient four; test: as above
[6] = target: anti-CC49 variable region (anti-idiotypic) antibodies in the serum of patient five; test: as above
[7] = target: TAG72 positive bovine submaxillary mucin (BSM) (bovine); test: relative affinity constant from competition RIA on BSM
[8] = target: anti-idiotypic antibodies to MAb CC49 in the serum of one patient (not named, Example V); test: HPLC size-exclusion competition: cold competitor vs ^125I-HuCC49 for complex formation with patient serum
[9] = target: anti-CC49 variable region (anti-idiotypic) antibodies in the serum of patient six; test: HPLC size exclusion; ^125I-HuCC49 + patient serum, no competitor
[10] = target: anti-CC49 variable region (anti-idiotypic) antibodies in the serum of patient two; test: as above
[11] = target: anti-CC49 variable region (anti-idiotypic) antibodies in the serum of patient one; test: as above
[12] = target: anti-CC49 variable region (anti-idiotypic) antibodies in the serum of patient three; test: as above
[13] = target: anti-CC49 variable region (anti-idiotypic) antibodies in the serum of patient four; test: as above
[14] = target: anti-CC49 variable region (anti-idiotypic) antibodies in the serum of patient five; test: as above
[15] = target: anti-CC49 variable region (anti-idiotypic) antibodies in the serum of patient two; test: HPLC competition, serial dilutions of cold competitor vs ^125I-HuCC49 with serum of patient two
[16] = target: mouse anti-idiotypic MAb AI49-3 (β-subset); test: competition RIA vs ^125I-murine CC49 on adsorbed AI49-3
[17] = target: mouse anti-idiotypic MAb AI49-1 (γ-subset); test: competition RIA vs ^125I-murine CC49 on adsorbed AI49-1

B1: HuCC49 CDR variant L-1 (antibody, V domains shown)
VH: QVQLVQSGAEVVKPGASVKISCKASGYTFTDHAIHWVKQNPGQRLEWIGYFSPGNDDFKYNERFKGKATLTADTSASTAYVELSSLRSEDTAVYFCTRSLNMAYWGQGTLVTVSS
VL: DIVMSQSPDSLAVSLGERVTLNCKSSQSVLYSSNSKNYLAWYQQKPGQSPKLLIYWASARESGVPDRFSGSGSGTDFTLTISSVQAEDVAVYYCQQYYSYPLTFGAGTKLELK
[1]
  percent of complexes: 16%
[2]
  percent of complexes: 16.9%
[3]
  percent of complexes: 12.2%
[4]
  percent of complexes: 9.8%
[5]
  percent of complexes: 10.1%
[6]
  percent of complexes: 14.3%
[7]
  fold less than the Ka of HuCC49: 2 fold

B2: HuCC49 CDR variant L-2 (antibody, V domains shown)
VH: B1 VH
VL: B1 VL with V29L, S33G, S35Q, A59T
[8]
  fold better competition than parental HuCC49: 2 fold
[1]
  percent of complexes: 2.7%
[2]
  percent of complexes: 3%
[3]
  percent of complexes: 3.4%
[4]
  percent of complexes: 2.7%
[5]
  percent of complexes: 4.4%
[6]
  percent of complexes: 2.4%

B3: HuCC49 CDR variant H-1 (antibody, V domains shown)
VH: B1 VH with D31S, H32Y, I34M
VL: B1 VL with V29L, S33G, S35Q
[1]
  percent of complexes: 10.2%
[2]
  percent of complexes: 5.8%
[3]
  percent of complexes: 3.9%
[4]
  percent of complexes: 3.3%
[5]
  percent of complexes: 7%
[6]
  percent of complexes: 3.5%

B4: HuCC49 CDR variant L-1,2 (antibody, V domains shown)
VH: B1 VH
VL: B1 VL with A59T
[1]
  percent of complexes: 24.6%
[2]
  percent of complexes: 15.7%
[3]
  percent of complexes: 24.5%
[4]
  percent of complexes: 12.6%
[5]
  percent of complexes: 19.4%
[6]
  percent of complexes: 20.2%
[7]
  fold less than the Ka of HuCC49: 2 fold

B5: HuCC49 variant ^97L1,2 (antibody, V domains shown)
VH: B1 VH
VL: B1 VL with A59T, T103S
[7]
  fold less than the Ka of HuCC49: 2 to 3 fold

B6: humanized monoclonal antibody HuCC49 (parental HuCC49) (antibody, V domains shown)
VH: B1 VH
VL: B1 VL with V29L, S33G, S35Q
[9]
  percent of complexes: 33.5%
[10]
  percent of complexes: 32.2%
[11]
  percent of complexes: 46.2%
[12]
  percent of complexes: 24.5%
[13]
  percent of complexes: 56.8%
[14]
  percent of complexes: 42.9%
[15]
  amount of competitor for 25% competition: 60 ng
[1]
  percent of complexes: 0%
[2]
  percent of complexes: 1.5%
[3]
  percent of complexes: 0%
[4]
  percent of complexes: 2.6%
[5]
  percent of complexes: 0.5%
[6]
  percent of complexes: 3%

B7: HuCC49 CDR variant H-2 (antibody, V domains shown)
VH: QVQLVQSGAEVVKPGASVKISCKASGYTFTDHAIHWVKQNPGQRLEWIGWINAGNGNTKYSQKFQGKATLTADTSASTAYVELSSLRSEDTAVYFCTRSLNMAYWGQGTLVTVSS
VL: B1 VL with V29L, S33G, S35Q
[16]
  fold more competitor for 50% inhibition than HuCC49: 4 to 15 fold
[1]
  percent of complexes: 32.7%
[2]
  percent of complexes: 29.7%
[3]
  percent of complexes: 32.5%
[4]
  percent of complexes: 12.7%
[5]
  percent of complexes: 24.7%
[6]
  percent of complexes: 36.6%
[17]
  fold more competitor for 50% inhibition than HuCC49: 4 to 15 fold
[7]
  fold less than the Ka of HuCC49: 300 fold

B8: HuCC49 CDR variant L-3 (antibody, V domains shown)
VH: B1 VH
VL: B1 VL with V29L, S33G, S35Q, Y100T, L102Y, T103S
[1]
  percent of complexes: 34.8%
[2]
  percent of complexes: 33.5%
[3]
  percent of complexes: 48.2%
[4]
  percent of complexes: 22.4%
[5]
  percent of complexes: 37.6%
[6]
  percent of complexes: 46.7%

B9: HuCC49 CDR variant H-3 (antibody, V domains shown)
VH: QVQLVQSGAEVVKPGASVKISCKASGYTFTDHAIHWVKQNPGQRLEWIGYFSPGNDDFKYNERFKGKATLTADTSASTAYVELSSLRSEDTAVYFCTRGGYYGSGSGSNYWGQGTLVTVSS
VL: B1 VL with V29L, S33G, S35Q
[1]
  percent of complexes: 7.3%
[2]
  percent of complexes: 6.7%
[3]
  percent of complexes: 5.1%
[4]
  percent of complexes: 3.7%
[5]
  percent of complexes: 8.2%
[6]
  percent of complexes: 4.6%
